We go through 1 molecule from article PMC9200065.

This data set addresses T1, MBP-GLD-1(135-336) WT (C. elegans, UniProt Q17339 135-336).
T1 sequence: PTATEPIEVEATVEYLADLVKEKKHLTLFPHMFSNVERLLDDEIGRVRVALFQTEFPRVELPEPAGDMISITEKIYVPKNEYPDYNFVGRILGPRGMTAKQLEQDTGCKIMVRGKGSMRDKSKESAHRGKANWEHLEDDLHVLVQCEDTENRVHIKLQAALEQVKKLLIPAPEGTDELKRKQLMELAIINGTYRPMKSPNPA
The data set can be described thus: EMSA. On the technique in general: Mobility shift assays separate free from complexed probe on a gel.

Consider UUUUUCUUAUUCUAGACUAAUAUUGUAAGCU (ssRNA) [glp-1 3'UTR fragment], for which the binding result is reported as “binds”.
